{"source": "patent US7026148", "proteins": {"B1": {"name": "FLAG-tagged wild type DRP-1 (DAP-kinase-related protein 1) (protein)", "chain": "MEPFKQQKVEDFYDIGEELGSGQFAIVKKCREKSTGLEYAAKFIKKRQSRASRRGVSREEIEREVSILRQVLHHNVITLHDVYENRTDVVHILELVSGGELFDFLAQKESLSEEEATSFIKQILDGVNYLHTKKIAHFDLKPENIMLLDKNIPIPHIKLIDFGLAHEIEDGVEFKNIFGTPEFVAPEIVNYEPLGLEADMWSIGVITYILLSGASPFLGDTKQETLANITSVSYDFDEEFFSHTSELAKDFIRKLLVKETRKRLTIQEALRHPWITPVDNQQAMVRRESVVNLENFRKQYVRRRWKLSFSIVSLCNHLTRSLMKKVHLRPDEDLRNCESDTEEDIARRKALHPRRRSSTS"}}, "target": "bovine calmodulin (Sigma), P62157"}
{"protein": "B1", "values": [{"measurement": "amount of phosphorylated MLC in the in vitro kinase assay", "result": "The addition of Ca2+/calmodulin to the reaction mixture increased the amount of phosphorylated MLC"}]}
